Substrate in the data set: Nc1c(Cl)cccc1-c1cc[nH]c1
Put plainly: purified protein. Format: biochemical, Pseudomonas fluorescens. Particulars: E. coli Fre 2.5 μM, FAD 1 μM, MgCl2 10 mM, NADH 2.5 mM, 20 mM Tris pH 7.4, PrnC 2.5 μM, chlorination.

For orientation: Km means the substrate concentration at which the rate is half of its maximum. In general, kcat refers to the number of substrate molecules converted per active site and unit of time at saturation.

B1: PrnC (NT11-PrnC-6His; native PrnC) (Pseudomonas fluorescens) (protein)
chain: MTQKSPANEHDSNHFDVIILGSGMSGTQMGAILAKQQFRVLIIEESSHPRFTIGESSIPETSLMNRIIADRYGIPELDHITSFYSTQRYVASSTGIKRNFGFVFHKPGQEHDPKEFTQCVIPELPWGPESHYYRQDVDAYLLQAAIKYGCKVHQKTTVTEYHADKDGVAVTTAQGERFTGRYMIDCGGPRAPLATKFKLREEPCRFKTHSRSLYTHMLGVKPFDDIFKVKGQRWRWHEGTLHHMFEGGWLWVIPFNNHPRSTNNLVSVGLQLDPRVYPKTDISAQQEFDEFLARFPSIGAQFRDAVPVRDWVKTDRLQFSSNACVGDRYCLMLHANGFIDPLFSRGLENTAVTIHALAARLIKALRDDDFSPERFEYIERLQQKLLDHNDDFVSCCYTAFSDFRLWDAFHRLWAVGTILGQFRLVQAHARFRASRNEGDLDHLDNDPPYLGYLCADMEEYYQLFNDAKAEVEAVSAGRKPADEAAARIHALIDERDFAKPMFGFGYCITGDKPQLNNSKYSLLPAMRLMYWTQTRAPAEVKKYFDYNPMFALLKAYITTRIGLALKK
notes: N-terminal 11-residue NT11 solubility tag and C-terminal 6His tag, pET-28a(+), expressed in E. coli T7 Express, Ni-NTA purified; dimer by cryo-EM
With B1, the Km was determined as 15.8 ± 0.7 µM and the turnover number (kcat) was 0.00767 s⁻¹.

The values above are taken from article PMC10770391, “Site-selective chlorination of pyrrolic heterocycles by flavin dependent enzyme PrnC” (Communications Chemistry, 2024).
